Assays:
Settings in all cases: Homo sapiens
[1] = compound: CCCCCCCCCCCCCCCc1cccc(O)c1C(=O)O; assay: Inhibition of recombinant N-terminal His6-tagged KAT8 (unknown origin) expressed in Escherichia Coli BL21 DE3 cells assessed as Vmax for histone H4 peptide at 80 uM
[2] = compound: CCCCCCCCCCCCCCCc1cccc(O)c1C(=O)O; assay: Uncompetitive inhibition of recombinant N-terminal His6-tagged KAT8 (unknown origin) expressed in Escherichia Coli BL21 DE3 cells assessed as Vmax for acetyl coenzyme A at 160 uM
[3] = compound: CCCCCCCCCCCCCCCc1cccc(O)c1C(=O)O; assay: Uncompetitive inhibition of recombinant N-terminal His6-tagged KAT8 (unknown origin) expressed in Escherichia Coli BL21 DE3 cells assessed as Km for acetyl coenzyme A at 80 uM
[4] = compound: CCCCCCCCCCCCCCCc1cccc(O)c1C(=O)O; assay: Inhibition of recombinant N-terminal His6-tagged KAT8 (unknown origin) expressed in Escherichia Coli BL21 DE3 cells assessed as Vmax for histone H4 peptide at 240 uM
[5] = compound: CCCCCCCCCCCCCCCc1cccc(O)c1C(=O)O; assay: Uncompetitive inhibition of recombinant N-terminal His6-tagged KAT8 (unknown origin) expressed in Escherichia Coli BL21 DE3 cells assessed as Vmax for acetyl coenzyme A at 240 uM
[6] = compound: CCCCCCCCCCCCCCCc1cccc(O)c1C(=O)O; assay: Uncompetitive inhibition of recombinant N-terminal His6-tagged KAT8 (unknown origin) expressed in Escherichia Coli BL21 DE3 cells assessed as Km for acetyl coenzyme A at 240 uM
[7] = compound: CCCCCCCCCCCCCCCc1cccc(O)c1C(=O)O; assay: Inhibition of recombinant N-terminal His6-tagged KAT8 (unknown origin) expressed in Escherichia Coli BL21 DE3 cells assessed as Vmax for histone H4 peptide at 160 uM
[8] = compound: CCCCCCCCCCCCCCCc1cccc(O)c1C(=O)O; assay: Uncompetitive inhibition of recombinant N-terminal His6-tagged KAT8 (unknown origin) expressed in Escherichia Coli BL21 DE3 cells assessed as Vmax for acetyl coenzyme A at 80 uM
[9] = compound: CCCCCCCCCCCCCCCc1cccc(O)c1C(=O)O; assay: Uncompetitive inhibition of recombinant N-terminal His6-tagged KAT8 (unknown origin) expressed in Escherichia Coli BL21 DE3 cells assessed as Km for acetyl coenzyme A at 160 uM

B1: Histone acetyltransferase KAT8 (Homo sapiens), Q9H7Z6 (protein)
chain: MAAQGAAAAVAAGTSGVAGEGEPGPGENAAAEGTAPSPGRVSPPTPARGEPEVTVEIGETYLCRRPDSTWHSAEVIQSRVNDQEGREEFYVHYVGFNRRLDEWVDKNRLALTKTVKDAVQKNSEKYLSELAEQPERKITRNQKRKHDEINHVQKTYAEMDPTTAALEKEHEAITKVKYVDKIHIGNYEIDAWYFSPFPEDYGKQPKLWLCEYCLKYMKYEKSYRFHLGQCQWRQPPGKEIYRKSNISVYEVDGKDHKIYCQNLCLLAKLFLDHKTLYFDVEPFVFYILTEVDRQGAHIVGYFSKEKESPDGNNVACILTLPPYQRRGYGKFLIAFSYELSKLESTVGSPEKPLSDLGKLSYRSYWSWVLLEILRDFRGTLSIKDLSQMTSITQNDIISTLQSLNMVKYWKGQHVICVTPKLVEEHLKSAQYKKPPITVDSVCLKWAPPKHKQVKLSKK
Vmax [1]: 12 pmol/min
Vmax [2]: 9.2 pmol/min
Km [3]: 2.4 µM
Vmax [4]: 12 pmol/min
Vmax [5]: 6.1 pmol/min
Km [6]: 1 µM
Vmax [7]: 12 pmol/min
Vmax [8]: 12 pmol/min
Km [9]: 1.9 µM
